Substitutions are numbered along the chain they refer to.
T1: cynomolgus monkey FcγRIIa1 extracellular domain, C-terminal His-tag (cynomolgus monkey)
T1 construct: also called cyno FcγRIIa1; cynoFcgRIIa1
T1 chain: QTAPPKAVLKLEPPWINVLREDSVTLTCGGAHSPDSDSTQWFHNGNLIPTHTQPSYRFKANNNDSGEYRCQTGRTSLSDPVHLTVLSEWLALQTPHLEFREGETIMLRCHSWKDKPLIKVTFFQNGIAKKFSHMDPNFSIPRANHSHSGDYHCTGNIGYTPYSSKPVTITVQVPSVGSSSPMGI

T2: cynomolgus monkey FcγRIIa2 extracellular domain, C-terminal His-tag (cynomolgus monkey)
T2 construct: also called cyno FcγRIIa2; cynoFcgRIIa2
T2 chain: T1 chain with P95T, T121A, I127K, A128S, K130N, D135N, R142Q

T3: cynomolgus monkey FcγRIIa3 extracellular domain, C-terminal His-tag (cynomolgus monkey)
T3 construct: also called cyno FcγRIIa3; cynoFcgRIIa3
T3 chain: T1 chain with P95T, T121A, A128S, H133P, D135N

T4: cynomolgus monkey FcγRIIb extracellular domain, C-terminal His-tag (cynomolgus monkey)
T4 construct: also called cyno FcγRIIb; cynoFcγRIIb
T4 chain: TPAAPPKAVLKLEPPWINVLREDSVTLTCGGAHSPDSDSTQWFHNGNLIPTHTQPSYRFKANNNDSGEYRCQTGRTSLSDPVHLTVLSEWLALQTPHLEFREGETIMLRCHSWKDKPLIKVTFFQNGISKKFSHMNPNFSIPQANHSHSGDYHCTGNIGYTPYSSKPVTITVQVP

T5: human FcγRIIaH extracellular domain, C-terminal His-tag (human, UniProt P12318 34-217)
T5 construct: also called human FcγRIIa (type H); FcgRIIaH
T5 sequence: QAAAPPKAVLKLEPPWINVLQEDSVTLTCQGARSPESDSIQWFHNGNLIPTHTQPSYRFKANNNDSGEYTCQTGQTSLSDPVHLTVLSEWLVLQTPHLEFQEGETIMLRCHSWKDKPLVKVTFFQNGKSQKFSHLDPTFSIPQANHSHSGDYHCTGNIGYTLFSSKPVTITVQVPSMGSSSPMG

T6: human FcγRIIaR extracellular domain, C-terminal His-tag (human, UniProt P12318 34-217)
T6 construct: also called human FcγRIIa (type R); FcgRIIaR
T6 chain: T5 sequence with H134R

T7: human FcγRIIb extracellular domain, C-terminal His-tag (human, UniProt P31994 43-217)
T7 construct: also called human FcgRIIb; FcgRIIb
T7 sequence: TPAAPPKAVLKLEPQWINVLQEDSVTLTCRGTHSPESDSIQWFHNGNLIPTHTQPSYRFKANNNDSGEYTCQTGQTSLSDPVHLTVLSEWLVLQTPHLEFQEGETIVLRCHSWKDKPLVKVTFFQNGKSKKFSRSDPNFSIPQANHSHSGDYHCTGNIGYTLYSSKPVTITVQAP

B1: M103205H795-MY105/M103202L889-SK1 (antibody, human IgG1, kappa)
heavy: QVTLKESGPVLVKPTETLTLTCTVSGIDLSHDDISWVRQAPGKGLEWVGIISYAGSTYYASWAKGRLTISKDTSKNQVVLTMTNMDPVDTATYYCARGVPAYSHGGDLWGQGTLVTVSSASTKGPSVFPLAPSSKSTSGGTAALGCLVKDYFPEPVTVSWNSGALTSGVHTFPAVLQSSGLYSLSSVVTVPSSSLGTQTYICNVNHKPSNTKVDKKVEPKSCDKTHTCPPCPAPELLNGPVVFLFPPKPKDTLMISRTPEVTCVVVDVSEEDPEVKFNWYVDGVEVHNAKTKPREEQYNSTYRVVSVLTVLHQDWLNGKEYKCKVSNKALPAPIEKTISKAKGQPREPQVYTLPPSREEMTKNQVSLTCLVKGFYPSDIAVEWESNGQPENNYKTTPMVLDSDGSFFLYSKLTVDKSRWQQGNVFSCSVMHEALHNHYTQKSLSLSP
light: DIVMTQSPATLSLSPGERATLSCTSSQSVYHANWLSWFQQKPGQPPKLLIYWASTLAYGVPSRFSGSGSGTDFTLTISSLQPEDAATYYCAGGYGGGRYAFGQGTKVEIKRTVAAPSVFIFPPSDEQLKSGTASVVCLLNNFYPREAKVQWKVDNALQSGNSQESVTEQDSKDSTYSLSSTLTLSKADYEKHKVYACEVTHQGLSSPVTKSFNRGEC
notes: Substitutions introduced into M103205H795-SG1; expressed with M103202L889-SK1 as light chain
B2: M103205H795-MY115/M103202L889-SK1 (antibody, human IgG1, kappa)
heavy: B1 heavy with V241S, S269A
light: B1 light
notes: as for B1
B3: M103205H795-MY117/M103202L889-SK1 (antibody, human IgG1, kappa)
heavy: B1 heavy with L236W, V241S, S269A
light: B1 light
notes: as for B1
B4: M103205H795-MY141/M103202L889-SK1 (antibody, human IgG1, kappa)
heavy: B1 heavy with V241S, S269A, E270H
light: B1 light
notes: as for B1
B5: M103205H795-MY147/M103202L889-SK1 (antibody, human IgG1, kappa)
heavy: B1 heavy with L237W, V241S
light: B1 light
notes: as for B1
B6: M103205H795-MY197/M103202L889-SK1 (antibody, human IgG1, kappa)
heavy: B1 heavy with V241S, E270D, A332K
light: B1 light
notes: as for B1

Assays:
Test in all cases: SPR (Biacore); KD of SG1 / KD of variant;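 note: relative to parent M103205H795-SG1 carrying the SG1 human heavy chain constant region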
[1] = biological target: T1, cynomolgus monkey FcγRIIa1 …
[2] = biological target: T2, cynomolgus monkey FcγRIIa2 …
[3] = biological target: T3, cynomolgus monkey FcγRIIa3 …
[4] = biological target: T4, cynomolgus monkey FcγRIIb extracellular …
[5] = biological target: T5, human FcγRIIaH extracellular domain, …
[6] = biological target: T6, human FcγRIIaR extracellular domain, …
[7] = biological target: T7, human FcγRIIb extracellular domain, …
[8] = biological target: T8, human FcγRIIIaV extracellular domain, C-terminal His-tag (human, UniProt P08637 17-208)
T8 construct: also called human FcgRIIIaV; FcgRIIIaV
T8 sequence (P08637 17-208 F176V): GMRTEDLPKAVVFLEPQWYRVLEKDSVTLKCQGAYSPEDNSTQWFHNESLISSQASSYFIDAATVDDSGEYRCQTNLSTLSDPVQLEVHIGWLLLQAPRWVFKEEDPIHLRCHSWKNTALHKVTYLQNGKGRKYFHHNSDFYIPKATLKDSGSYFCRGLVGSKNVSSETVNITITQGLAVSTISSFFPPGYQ

Binder	KD fold (SG1 = 1) [1] [fold]	KD fold (SG1 = 1) [2] [fold]	KD fold (SG1 = 1) [3] [fold]	KD fold (SG1 = 1) [4] [fold]	KD fold (SG1 = 1) [5] [fold]	KD fold (SG1 = 1) [6] [fold]	KD fold (SG1 = 1) [7] [fold]	KD fold (SG1 = 1) [8] [fold]
B1	2.7	5.7	13.1	4.6	0.5	0.8	8.1	0.14
B2	1.4	1.9	2.2	2.3	0.7	1.7	14.4	0.22
B3	1.2	1.6	1.7	1.8	0.8	1.1	7.7	0.1
B4	1.5	1.8	0.9	1	0.8	0.7	4.2	0.07
B5	1.5	2.3	2.6	3.9	0.6	1	5.5	0.07
B6	5.5	9.1	12.1	10.6	1.9	1.5	11.8	0.08

From patent US20200317768A1 (published 2020)
